Results taken from patent US20060211042A1 (Johns Hopkins, published 2006).

Biological target: T1, rEAAT3/EAAC1 (rat excitatory amino acid transporter 3), full length, expressed in HEK 293T cells (rat, UniProt P51907 1-523)
T1 sequence (looked up): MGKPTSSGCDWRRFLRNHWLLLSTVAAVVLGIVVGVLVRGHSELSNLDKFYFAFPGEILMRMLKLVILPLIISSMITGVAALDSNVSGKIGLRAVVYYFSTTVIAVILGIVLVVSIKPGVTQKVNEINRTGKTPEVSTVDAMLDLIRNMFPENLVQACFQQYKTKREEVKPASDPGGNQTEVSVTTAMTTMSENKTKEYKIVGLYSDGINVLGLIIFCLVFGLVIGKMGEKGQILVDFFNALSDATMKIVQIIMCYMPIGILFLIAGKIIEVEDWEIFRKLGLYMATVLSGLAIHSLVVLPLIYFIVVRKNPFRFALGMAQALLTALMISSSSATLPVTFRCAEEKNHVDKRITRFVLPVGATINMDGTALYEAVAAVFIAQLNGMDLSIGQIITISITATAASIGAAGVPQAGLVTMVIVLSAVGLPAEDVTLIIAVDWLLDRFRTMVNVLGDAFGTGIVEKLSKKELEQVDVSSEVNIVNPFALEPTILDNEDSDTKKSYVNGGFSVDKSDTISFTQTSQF
Experiment: cell-based or functional assay

B1: GTRAP3-18 (Glutamate Transporter Associated Protein of EAAT3), HA-tagged, expressed in HEK 293T cells (other, not shown: small tags and cut ends)
chain: MDVNLAPLRAWDDFFPGSDRFARPDFRDISKWNNRVVSNLLYYQTNYLVVAAMMISVVGFLSPFNMILGGIIVVLVFTGFVWAAHNKDILRRMKKQYPTAFVMVVMLASYFLISMFGGVMVFVFGITFPLLLMFIHASLRLRNLKNKLENKMEGIGLKKTPMGIILDALEQQEDSINKFADYISKARE
decrease in Na+-dependent L-[3H]-glutamate uptake in HEK 293T cells, co-transfection at equal ratio: ~20%
